From PMC3283691, “Low-Resolution Molecular Models Reveal the Oligomeric State of the PPAR and the Conformational Organization of Its Domains in Solution” (PLoS ONE, 2012)
“And” between values parts separate entries of the source, which are not always exact repeats. Equal entries are not always repeated.

T1: human PPARγ DBD-LBD (amino acids 101–468) (Homo sapiens (Human), UniProt P37231-2)
T1 chain: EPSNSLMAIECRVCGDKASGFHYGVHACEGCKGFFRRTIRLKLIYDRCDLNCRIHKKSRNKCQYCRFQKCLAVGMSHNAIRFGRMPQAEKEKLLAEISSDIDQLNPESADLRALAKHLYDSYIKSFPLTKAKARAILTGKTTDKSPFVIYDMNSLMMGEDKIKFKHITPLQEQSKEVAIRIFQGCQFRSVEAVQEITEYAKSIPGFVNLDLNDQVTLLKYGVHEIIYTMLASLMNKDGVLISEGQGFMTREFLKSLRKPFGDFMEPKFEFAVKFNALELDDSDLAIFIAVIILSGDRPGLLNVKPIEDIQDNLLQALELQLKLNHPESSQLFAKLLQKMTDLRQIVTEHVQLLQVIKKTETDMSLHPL

T2: human PPARγ LBD (amino acids 204–477) (Homo sapiens (Human), UniProt P37231-2)
T2 chain: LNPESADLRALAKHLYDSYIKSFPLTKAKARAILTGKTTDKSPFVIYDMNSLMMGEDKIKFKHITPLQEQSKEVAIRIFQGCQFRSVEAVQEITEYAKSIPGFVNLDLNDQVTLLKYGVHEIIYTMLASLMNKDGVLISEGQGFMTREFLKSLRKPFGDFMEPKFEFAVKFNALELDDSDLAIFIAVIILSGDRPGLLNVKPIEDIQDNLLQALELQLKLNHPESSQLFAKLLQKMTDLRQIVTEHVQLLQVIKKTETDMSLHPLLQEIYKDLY

T3: human PPARγ LBD (amino acids 204–477) (human, UniProt P37231-2 204-477)
T3 construct: Cloned in pET28a(+); His-tag removed with thrombin; also called hPPARγ LBD; PPAR LBD
T3 sequence (looked up): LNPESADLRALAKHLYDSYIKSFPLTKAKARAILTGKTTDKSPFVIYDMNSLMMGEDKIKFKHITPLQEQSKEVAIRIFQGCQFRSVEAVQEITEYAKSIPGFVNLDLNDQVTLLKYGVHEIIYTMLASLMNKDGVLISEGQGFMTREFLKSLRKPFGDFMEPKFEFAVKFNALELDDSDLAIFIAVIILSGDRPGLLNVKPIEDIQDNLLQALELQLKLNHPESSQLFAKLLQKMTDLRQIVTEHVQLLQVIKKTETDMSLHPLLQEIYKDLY


How the values were obtained:
[1] = target: T1, human PPARγ DBD-LBD (amino acids …); assay: SEC, SAXS, H/D exchange MS
[2] = target: the molecule itself; assay: native gel or EMSA; native polyacrylamide gel electrophoresis after gel filtration; RH from band mobility; hPPARγ LBD at 1 to 20 mg/mL
[3] = target: the molecule itself; assay: SEC; analytical gel filtration, Superdex 75 HR 10/30 (LBD constructs) or Superdex 200 HR 10/30 (DBD-LBD constructs); 20 mM Hepes-Na pH 8.0, 3 mM dithiothreitol, 200 mM NaCl, 5% glycerol; heterodimers formed from 20 mg/mL of each protein, 1:1 molar, 1 h at 4°C; RH from calibration standards
[4] = target: T2, human PPARγ LBD (amino acids 204–477); assay: SEC, native PAGE, DLS, SAXS
[5] = target: the molecule itself; assay: dynamic light scattering; DLS after gel filtration; hPPARγ LBD at different concentrations
[6] = target: T3, human PPARγ LBD (amino acids 204–477); assay: SEC; analytical gel filtration, Superdex 75 HR 10/30 (LBD constructs) or Superdex 200 HR 10/30 (DBD-LBD constructs); 20 mM Hepes-Na pH 8.0, 3 mM dithiothreitol, 200 mM NaCl, 5% glycerol; heterodimers formed from 20 mg/mL of each protein, 1:1 molar, 1 h at 4°C; RH from calibration standards; conditions: both partners purified

Row | Binder | binding result [1] | stoichiometry N [2] | stoichiometry N [3] | binding result [4] | stoichiometry N [5] | binding result [6]
1 | human RXRα DBD-LBD (amino acids 135–462) (protein) CAICGDRSSGKHYGVYSCEGCKGFFKRTVRKDLTYTCRDNKDCLIDKRQRNRCQYCRYQKCLAMGMKREAVQEERQRGKDRNENEVESTSSANEDMPVERILEAELAVEPKTETYVEANMGLNPSSPNDPVTNICQAADKQLFTLVEWAKRIPHFSELPLDDQVILLRAGWNELLIASFSHRSIAVKDGILLATGLHVHRNSAHSAGVGAIFDRVLTELVSKMRDMQMDKTELGCLRAIVLFNPDSKGLSNPAEVEALREKVYASLEAYCKHKYPEQPGRFAKLLLRLPALRSIGLKCLEHLFFFKLIGDTPIDTFLMEMLEAPHQMT | binds | – | – | – | – | –
2 | human RXRα LBD (amino acids 225–462) (domain or fragment, UniProt P19793 225-462, looked up, Cloned in pET28a(+); also called hRXRα LBD) SANEDMPVERILEAELAVEPKTETYVEANMGLNPSSPNDPVTNICQAADKQLFTLVEWAKRIPHFSELPLDDQVILLRAGWNELLIASFSHRSIAVKDGILLATGLHVHRNSAHSAGVGAIFDRVLTELVSKMRDMQMDKTELGCLRAIVLFNPDSKGLSNPAEVEALREKVYASLEAYCKHKYPEQPGRFAKLLLRLPALRSIGLKCLEHLFFFKLIGDTPIDTFLMEMLEAPHQMT | – | 4 and 2 | 2 and 4 | binds | 4 and 2 | binds
